According to publication PMC9891502 (PLOS Pathogens, 2023):
Numbering of substitutions follows the chain as printed. Names and notes keep the numbering of the source.

Experiments:
gB AD-2S1 peptide [1] = target: gB AD-2S1 peptide (human cytomegalovirus); assay: SPR; details: both partners purified
[2] = target: T1, full-length gB (Towne strain) expressed on HEK293T cells (Human cytomegalovirus strain Towne, UniProt P13201); assay: flow cytometry on cells; parameters: AUC of a 3-point dilution series: unit not given beside the values; details: one partner purified
T1 construct: also called cell-associated gB

gB AD-2S1 peptide [3] = target: T2, gB AD-2S1 peptide (Human cytomegalovirus (HHV-5), gB …); assay: ELISA; 384-well plates coated overnight at 4°C with 45 ng gB AD-2S1 peptide or gB ectodomain per well; mAbs in a 12-point 3-fold dilution from 1 μg/mL; detected with goat anti-human IgG-HRP; EC50; details: both partners purified
T2 chain: HRANETIYNTTLKYG

gB AD-2S1 peptide [4] = target: gB AD-2S1 peptide (human cytomegalovirus); assay: SPR; details: both partners purified; remark: listed apart in the source
[5] = target: T3, gB on whole CMV virions of strain TB40/E (Human cytomegalovirus strain TB40/E (gB …, UniProt P13201, strain)); assay: ELISA; details: one partner purified
T3 construct: also called whole virion CMV strain TB40/E; source: whole TB40/E virions coated on the plate (33 PFU/well)

[6] = target: T1, full-length gB (Towne strain) expressed …; assay: cell-based or functional assay
gB AD-2S1 peptide [7] = target: T2, gB AD-2S1 peptide; assay: SPR; details: both partners purified

B1: I7 (antibody, V domains shown)
VH: QVQLVESGGGVVQPGRSLRLSCAASGFTFSGYNLHWVRQAPGKGLEWVAVISIDGSNKHYADSVKGRFTISRDNSKNTLYLQMNSLRAEDTAVYYCARDGRSVGGFSGILDPWGQGTLVTVSS
VL: not shown
notes: also called intermediate 7
Kd (gB AD-2S1 peptide [1]): 4.47 nM | kon (gB AD-2S1 peptide [1]): 1.46e+08 M⁻¹ s⁻¹

B2: TRL345 UCA with VH A33N (antibody, V domains shown)
VH: B1 VH with G31S, L34M, I53Y, H59Y
VL: not shown
fold increase in binding magnitude against the UCA [2]: 2.5 fold | fold increase in binding magnitude against the UCA (gB AD-2S1 peptide [3]): 269 fold

B3: TRL345 I8 (antibody, V domains shown)
VH: B1 VH with G31S, L34M, I53N, H59Y
VL: not shown
Kd (gB AD-2S1 peptide [4]): 23.2 nM | kon (gB AD-2S1 peptide [4]): 1.33e+08 M⁻¹ s⁻¹

B4: TRL345 UCA with VH A33G (antibody, V domains shown)
VH: B1 VH with G31S, N33G, L34M, I53Y, H59Y
VL: not shown
fold increase in binding against the TRL345 UCA [2]: 1.1 fold | fold increase in binding against the TRL345 UCA (gB AD-2S1 peptide [3]): ~15 fold

B5: TRL345 UCA with VL N53D (antibody, V domains shown)
VH: B1 VH with G31S, N33A, L34M, I53Y, H59Y
VL: not shown
binding result [2]: binds

B6: I5 (antibody, V domains shown)
VH: B1 VH with A23S, G31D, Y60H, L79V, Y80N, F106Y
VL: EIVLTQSPATLSLSPGERATLSCRASQSVGSYLAWYQQKPGQAPRLLIYDASERATGIPARFSGSGSGTDFTLTISSLEPEDVAVYYCQQRSNWPPLTFGGGTKVEIK
notes: also called intermediate 5
Kd (gB AD-2S1 peptide [1]): 5.52 nM | kon (gB AD-2S1 peptide [1]): 1.23e+08 M⁻¹ s⁻¹

B7: TRL345 lineage intermediate 8 (I8) mAb (antibody, V domains shown)
VH: B1 VH with G31S, L34M, I53N, H59Y
VL: not shown
AUC of a 3-point dilution series [2]: 133 ± 33.3 | fold increase in ELISA binding magnitude against the UCA (gB AD-2S1 peptide [3]): 151 fold | binding result [5]: binds | neutralization IC50, CMV strain AD169rUL131-GFP (gB genotype 2) on MRC-5 fibroblasts [6]: 0.83 µg/mL | neutralization IC50, CMV strain Towne (gB genotype 1) on MRC-5 fibroblasts [6]: 2.78 µg/mL

B8: I8 with VL N53D reverted to germline (antibody, V domains shown)
VH: B1 VH with G31S, L34M, I53N, H59Y
VL: not shown
binding result [2]: binds | binding result (gB AD-2S1 peptide [3]): binds | fold decrease in neutralization potency for CMV strain Towne against I8 [6]: 2.5 fold

B9: I8 with VL S30G reverted to germline (antibody, V domains shown)
VH: B1 VH with G31S, L34M, I53N, H59Y
VL: not shown
binding result [2]: binds | binding result (gB AD-2S1 peptide [3]): binds | fold decrease in neutralization potency for CMV strain Towne against I8 [6]: 9 fold

B10: I8 with VH Y52aN reverted to germline (antibody, V domains shown)
VH: B1 VH with G31S, L34M, I53Y, H59Y
VL: not shown
binding result [2]: binds | binding result (gB AD-2S1 peptide [3]): binds

B11: TRL345 UCA with VL S30G (antibody, V domains shown)
VH: B1 VH with G31S, N33A, L34M, I53Y, H59Y
VL: not shown
fold increase in binding magnitude against the UCA [2]: 1.2 fold | fold increase in binding magnitude against the UCA (gB AD-2S1 peptide [3]): 1.8 fold

B12: TRL345 unmutated common ancestor (UCA) mAb (antibody, V domains shown)
VH: B1 VH with G31S, N33A, L34M, I53Y, H59Y
VL: not shown
notes: also called TRL345 UCA; TRL345.UCA
AUC of a 3-point dilution series [2]: 97.3 ± 21.2

B13: I8 with VH A33N reverted to germline (antibody, V domains shown)
VH: B1 VH with G31S, N33A, L34M, I53N, H59Y
VL: not shown
other [2]: 1.4 fold | other (gB AD-2S1 peptide [3]): 395 fold

B14: MAB319 (antibody, V domains shown)
VH: B1 VH with A23S, G31D, N57D, Y60H, I70V, L79V, Y80S, N84D, A88P, F106Y
VL: B6 VL with S92N
Kd (gB AD-2S1 peptide [1]): 0.9 nM | kon (gB AD-2S1 peptide [1]): 1.3e+08 M⁻¹ s⁻¹

B15: TRL345 UCA (antibody, V domains shown)
VH: B1 VH with G31S, N33A, L34M, I53Y, H59Y
VL: not shown
notes: also called unmutated common ancestor
Kd (gB AD-2S1 peptide [4]): 27.6 nM | kon (gB AD-2S1 peptide [4]): 9.73e+07 M⁻¹ s⁻¹

B16: TRL345 UCA with VH Y52aN (antibody, V domains shown)
VH: B1 VH with G31S, N33A, L34M, I53N, H59Y
VL: not shown
binding result [2]: binds

B17: MAB343 (antibody, V domains shown)
VH: QVQLQESGGGVVQPGRSLRLSCAASGFTFNTYNMHWVRQAPGKGLEWVAVISNDGTYKYSADSVKGRFSISRGNSKNTLYLQMNSLRPDDTAVYYCARDGRSVGGFSGILDPWGQGTLATVSS
VL: B6 VL with L4M, E17D, E53D, V83F
Kd (gB AD-2S1 peptide [1]): 1.57 nM | kon (gB AD-2S1 peptide [1]): 1.61e+08 M⁻¹ s⁻¹

B18: I4 (antibody, V domains shown)
VH: B17 VH with Q5V, G73D, A119V
VL: B6 VL with E17D, E53D, V83F
notes: also called intermediate 4
Kd (gB AD-2S1 peptide [1]): 1.85 nM | kon (gB AD-2S1 peptide [1]): 1.3e+08 M⁻¹ s⁻¹

B19: MAB316 (antibody, V domains shown)
VH: QVQLVQSGGGVVQPGRSLTLSCAASGFTFSGFSLHWVRQAPGKGLQWVAVISFDGNHKHFADSLKGRFTISRDNSKNTLYLQINDLRGEDTAVYYCARDGRAVDGFSGILDFWGQGTLVSVSS
VL: B6 VL with L4M, S31R, A34T, Y36F, I58V, V83F
Kd (gB AD-2S1 peptide [1]): 2.96 nM | kon (gB AD-2S1 peptide [1]): 1.63e+08 M⁻¹ s⁻¹

B20: TRL345 (antibody, V domains shown)
VH: B17 VH with Q5V, N30S, T31D, N53I, K65A, I70L, G73D, V93I, A119V
VL: B6 VL with L4M, E17D, I48M, A51S, E53V, V83F, S92N
notes: also called MAB345
Kd (gB AD-2S1 peptide [4]): 0.29 nM | kon (gB AD-2S1 peptide [4]): 1.52e+08 M⁻¹ s⁻¹

B21: MAB338 (antibody, V domains shown)
VH: QVQLVESGGGVVQPGRSLRLSCSGSGFTFSDYNLHWVRQAPGKGLEWVAVISIDGTNKHHADSVKGRFTISRDNSKNTVNLEMSRLKAEDTAVYYCVRDGRSIGGYSGIFDPWGQGTLVTVSS
VL: B6 VL with G30D, S31R, E53Q, T74A, V105I
Kd (gB AD-2S1 peptide [1]): 1.99 nM | kon (gB AD-2S1 peptide [1]): 1.36e+08 M⁻¹ s⁻¹

B22: I1 (antibody, V domains shown)
VH: B17 VH with Q5V, G73D, A119V
VL: B6 VL with L4M, E17D, E53D, V83F
notes: also called intermediate 1
Kd (gB AD-2S1 peptide [1]): 1.59 nM | kon (gB AD-2S1 peptide [1]): 1.43e+08 M⁻¹ s⁻¹

B23: MAB318 (antibody, V domains shown)
VH: QVQLVQSGGGVVQPGTSLRLSCAASGFMFNTYNMHWVRQAPGKGLEWVAVISNDGTYKHFADSLKGRFSISRDDSKNTLYLHMNSLRPDDTAIYYCARDGRSVGGFSGILDPWGQGTLVTVSS
VL: B6 VL with I2V, E17D, S28T, S31R, E53D, P59S, S76G, V83F, N93S
Kd (gB AD-2S1 peptide [1]): 3.68 nM | kon (gB AD-2S1 peptide [1]): 1.33e+08 M⁻¹ s⁻¹

B24: MAB309 (I2) (antibody, V domains shown)
VH: B23 VH
VL: B6 VL with E17D, S28T, S31R, E53D, P59S, V83F, N93S
Kd (gB AD-2S1 peptide [1]): 3.77 nM | kon (gB AD-2S1 peptide [1]): 1.24e+08 M⁻¹ s⁻¹

B25: TRL345 lineage second intermediate (I4) mAb (antibody, V domains shown)
VH: B17 VH with Q5V, G73D, A119V
VL: B6 VL with E17D, E53D, V83F
other (gB AD-2S1 peptide [7]): 5 fold

B26: TRL345 mAb (antibody, V domains shown)
VH: B17 VH with Q5V, N30S, T31D, N53I, K65A, I70L, G73D, V93I, A119V
VL: B6 VL with L4M, E17D, I48M, A51S, E53V, V83F, S92N
AUC of a 3-point dilution series [2]: 152 ± 20.8 | neutralization IC50 on ARPE epithelial cells [6]: < 0.35 µg/mL | neutralization IC50 on MRC-5 fibroblasts [6]: < 0.25 µg/mL

B27: MAB313 (antibody, V domains shown)
VH: B19 VH with V12I, G31A, F32Y, H57F, K65R, T78R, L79F, I83M, D85G
VL: B6 VL with L4M, S31R, A34T, Y36F, V83F, S92A
Kd (gB AD-2S1 peptide [1]): 4.38 nM | kon (gB AD-2S1 peptide [1]): 1.54e+08 M⁻¹ s⁻¹

B28: anti-gB AD-2 mAb 3-25 (antibody, V domains shown)
VH: QVQLVESGGGVVQPGRSLRLSCAASGFTFSNHGLHWVRQPPGKGLEWVAVVSKDGTNEHYADSVRGRFTISRDNSKNTLYLLMKSLRLEDTAVYYCAREGYCGDDRCYSGQPDYWGQGILVTVSS
VL: B6 VL with S7F, S31R, A51S, E53N, I58V, T74S, V83F, Y87F, N93H
Kd (gB AD-2S1 peptide [4]): 4.42 nM | kon (gB AD-2S1 peptide [4]): 1.49e+08 M⁻¹ s⁻¹

B29: MAB310 (I3) (antibody, V domains shown)
VH: B23 VH with H59Y, F60S, D74N, I93V
VL: B6 VL with E17D, S28T, S31R, E53D, P59S, V83F
Kd (gB AD-2S1 peptide [1]): 3.11 nM | kon (gB AD-2S1 peptide [1]): 1.87e+08 M⁻¹ s⁻¹

B30: 3–25 UCA with VH A33N (antibody, V domains shown)
VH: QVQLVESGGGVVQPGRSLRLSCAASGFTFSSYNMHWVRQAPGKGLEWVAVISYDGSNKYYADSVKGRFTISRDNSKNTLYLQMNSLRAEDTAVYYCAREGYCSGGSCYSGQPDYWGQGTLVTVSS
VL: not shown
other [2]: 4.4 fold

B31: 3–25 UCA with VH A33G (antibody, V domains shown)
VH: B30 VH with N33G
VL: not shown
other [2]: 1.4 fold
